T1: His-CaENO1 (recombinant Candida albicans alpha-enolase with His tag) (Candida albicans, UniProt P30575 1-440)
T1 construct: Expressed from pQE30-CaENO1 in E. coli BL21, purified on Ni resin, about 49 kDa; also called recombinant CaENO1 protein; purified CaENO1; not shown: His tag from the pQE30 vector
T1 sequence (looked up): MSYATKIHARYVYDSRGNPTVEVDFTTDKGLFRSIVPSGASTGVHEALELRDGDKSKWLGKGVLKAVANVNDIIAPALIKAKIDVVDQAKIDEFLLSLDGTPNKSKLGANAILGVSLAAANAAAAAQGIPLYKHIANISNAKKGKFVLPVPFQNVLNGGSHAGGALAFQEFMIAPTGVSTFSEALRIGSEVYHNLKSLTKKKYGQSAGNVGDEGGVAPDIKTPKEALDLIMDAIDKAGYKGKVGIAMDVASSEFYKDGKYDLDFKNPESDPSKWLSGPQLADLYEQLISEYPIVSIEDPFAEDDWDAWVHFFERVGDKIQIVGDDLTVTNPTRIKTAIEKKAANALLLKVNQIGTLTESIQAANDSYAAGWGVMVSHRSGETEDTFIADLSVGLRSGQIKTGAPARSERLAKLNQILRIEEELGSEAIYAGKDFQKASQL

B1: CaS1 scFv (anti-CaENO1 scFv monoclonal antibody) (scFv)
scFv: ALTQPSSVSANLGGTVKITCSGGSGSYGWYQQKSPGSAPVTVIYSNNQRPSNIPSRFSGSPSGSTGTLTITGVQADDEAVYFCGSRDSSYVGVFGAGTTLTVLGQSSRSSTVTLDESGGGLQTPRGALSLVCKASGFTFIDYGMQWVRQAPGKGLEWVAGIGSSGSSTNYGAAVKGRATISRDDGQSTVRLQLNNLRAEDTGTYYCAKSAGGYCVNGAGCNGGSIDAWGHGTEVIVSS
notes: Chicken scFv from a phage library in pComb3X, expressed in E. coli, purified on Ni Sepharose; also called scFv CaS1; His-CaS1 scFv; not shown: His tag (and HA tag) from the pComb3X vector

Assays:
[1] = target: native CaENO1 of Candida albicans (alpha-enolase on the cell surface and in cell lysates) (Candida albicans) (UniProt P30575); experiment: flow cytometry on C. albicans SC 5314 cells, 100 ug antibody (negative control)
[2] = target: T2, mENO1 (purified recombinant mouse ENO1) (mouse, UniProt P17182 1-434, limits assumed); experiment: Western blot on purified ENO1 proteins
T2 construct: not shown: His tag, 'expressed and purified in the same way' as His-CaENO1

[3] = target: T3, hENO1 (purified recombinant human ENO1) (human, UniProt P06733 1-434, limits assumed); experiment: Western blot on purified ENO1 proteins
T3 construct: not shown: His tag, 'expressed and purified in the same way' as His-CaENO1

[4] = target: T1, His-CaENO1 (recombinant Candida …); experiment: ELISA, serial dilution of CaS1 scFv on coated His-CaENO1
[5] = target: T1, His-CaENO1 (recombinant Candida …); experiment: ELISA, serial dilution of CaS1 scFv on coated recombinant CaENO1; concentration at 50% of OD
[6] = target: T1, His-CaENO1 (recombinant Candida …); experiment: competitive ELISA, serial dilution of free CaENO1 mixed with 1 µg/mL CaS1 scFv, then added to coated CaENO1; printed as KD of CaS1 scFv
[7] = target: T1, His-CaENO1 (recombinant Candida …); experiment: competitive ELISA, serial dilution of free His-CaENO1 mixed with 1 µg/mL CaS1, then added to coated His-CaENO1; printed as KD of CaS1 scFv

T2 sequence (P17182 whole entry): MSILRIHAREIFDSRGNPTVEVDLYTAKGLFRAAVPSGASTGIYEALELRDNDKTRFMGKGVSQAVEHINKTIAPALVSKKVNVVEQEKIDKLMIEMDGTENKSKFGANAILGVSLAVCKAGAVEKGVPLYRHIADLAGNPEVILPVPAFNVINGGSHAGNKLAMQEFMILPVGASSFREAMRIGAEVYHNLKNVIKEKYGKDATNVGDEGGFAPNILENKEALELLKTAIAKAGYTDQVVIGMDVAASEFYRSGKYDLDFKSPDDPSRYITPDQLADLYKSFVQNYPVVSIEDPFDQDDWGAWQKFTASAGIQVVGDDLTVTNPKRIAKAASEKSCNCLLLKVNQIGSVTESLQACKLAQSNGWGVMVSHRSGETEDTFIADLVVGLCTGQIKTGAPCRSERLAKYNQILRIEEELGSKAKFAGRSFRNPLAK
T3 sequence (P06733 whole entry): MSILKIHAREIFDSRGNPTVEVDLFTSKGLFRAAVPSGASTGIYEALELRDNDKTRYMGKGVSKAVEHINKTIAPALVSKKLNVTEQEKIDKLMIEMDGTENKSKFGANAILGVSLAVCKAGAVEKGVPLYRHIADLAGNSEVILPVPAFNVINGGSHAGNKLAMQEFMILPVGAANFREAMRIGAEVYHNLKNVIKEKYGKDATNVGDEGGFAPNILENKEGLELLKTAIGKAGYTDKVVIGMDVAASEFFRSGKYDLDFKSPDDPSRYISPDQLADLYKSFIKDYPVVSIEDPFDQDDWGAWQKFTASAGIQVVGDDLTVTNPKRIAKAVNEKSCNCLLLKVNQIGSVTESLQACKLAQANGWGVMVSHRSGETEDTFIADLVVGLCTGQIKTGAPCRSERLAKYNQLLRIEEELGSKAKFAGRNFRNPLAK

Molecule | % FITC fluorescence reaction [1] [%] | binding result [2] | binding result [3] | Kd [4] [nM] | Kd [5] [µg/mL] | Kd [6] [µg/mL] | Kd [7] [nM]
control scFv (irrelevant scFv) | 23 | – | – | – | – | – | –
B1 | – | binds | binds | 18.8 | 0.498 | 4.45 | 89

— patent publication US20180319873A1 (TAIPEI MEDICAL UNIVERSITY, published 2018)
